The values that follow are results of earlier work, collected in article PMC5135002.

In this data set the target is CYLD USP (Homo sapiens) (UniProt Q9NQC7).
UniProt Q9NQC7, sequence (Q9NQC7 589-953): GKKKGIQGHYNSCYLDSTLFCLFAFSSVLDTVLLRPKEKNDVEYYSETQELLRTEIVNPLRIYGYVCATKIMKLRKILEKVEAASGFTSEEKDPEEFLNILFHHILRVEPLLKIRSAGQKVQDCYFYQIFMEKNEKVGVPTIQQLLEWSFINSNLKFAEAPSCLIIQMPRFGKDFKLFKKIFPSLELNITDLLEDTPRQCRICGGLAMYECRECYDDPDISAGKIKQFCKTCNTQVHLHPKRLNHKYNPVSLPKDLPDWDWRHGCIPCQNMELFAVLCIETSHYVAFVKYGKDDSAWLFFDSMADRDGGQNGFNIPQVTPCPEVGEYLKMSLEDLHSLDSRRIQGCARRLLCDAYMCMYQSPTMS

SPATA2 PUB (from UniProt Q9UM82): the Kd was 10 nM.

One may read the Kd as the free concentration of one partner at which half of the binding sites on the other are occupied at equilibrium, for simple one-to-one binding.
